# Measured values from the supplement of paper PMC7877785.
# ± gives the uncertainty stated by the source.
# Experiment: self-splicing fitness, log relative to wild type (ln ratio); higher = more splicing; Tetrahymena group I intron in knt gene, E. coli kanamycin selection, DiMSum; sequences stand for … in CUCUCU…GGAGGGAAAAGUUAUCAGGCAUGCACCUGGUAGCUAGUCUUUAAACCAAUAGAUUGCAUCGGUUUAAAAGGCAAGACCGUCAAAUUGCGGGAAAGGGGUCAACAGCCGUUCAGUACCAAGUCUCAGGGGAAACUUUGAGAUGGCCUUGCAAAGGGUAUGGUAAUAAGCUGACGGACAUGGUCCUAACCACGCAGCCAAGUCCUAAGUCAACAGAUCUUCUGUUGAUAUGGAUGCAGUUCACAGACUAAAUGUCGGUCGGGGAAGAUGUAUUCUUCUCAUAAGAUAUAGUCGGACCUCUCCUUAAUGGGAGCUAGCGGAUGAAGUGAUGCAACACUGGAGCCGCUGGGAACUAAUUUGUAUGCGAAAGUAUAUUGAUUAGUUUUGGAGUACUCGUGGUCG
# Outline: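 DiMSum derived fitness as the error-weighted combination of fold changes across replicates, kanamycin versus no kanamycin, normalised to wild type. E. coli BL21(DE3) held the library, which randomised all eight P1ex-region intron nucleotides within the knt kanamycin-resistance gene on pET-22b(+). Six replicate transformations grew overnight at 37°C or 30°C on LB agar with or without 25 μg/mL kanamycin, also containing 100 μg/mL carbenicillin, 50 μM IPTG and 0.2% rhamnose, and pooled colonies were amplicon-sequenced on an Illumina HiSeq 2500.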
Sequence,self-splicing fitness (ln) (30 °C),self-splicing fitness (ln) (37 °C)
UGUGAGCAAUAUUACGGAAG,-2.97 ± 0.25,-1.76 ± 0.26
UGUGAGCAAUAUUACGGGCG,-0.245 ± 0.1,0.233 ± 0.16
UGUGAGCAAUAUUACGGGGG,-3.23 ± 0.26,-2.35 ± 0.23
UGUGAGCAAUAUUACGGGUU,-3.22 ± 0.31,-1.59 ± 0.28
UGUGAGCAAUAUUACGGUAA,-2.56 ± 0.31,-2.25 ± 0.3
UGUGAGCAAUAUUACGGUCU,-3.01 ± 0.17,-2.19 ± 0.2
UGUGAGCAAUAUUACGGUGC,-3.57 ± 0.25,-1.77 ± 0.21
UGUGAGCAAUAUUACGUCGG,-2.11 ± 0.2,-1.35 ± 0.29
UGUGAGCAAUAUUACGUCUU,-2.9 ± 0.29,-2.27 ± 0.3
UGUGAGCAAUAUUACGUGGU,-3.75 ± 0.23,-1.88 ± 0.17
UGUGAGCAAUAUUACGUGUC,,-1.75 ± 0.28
UGUUAGCAAUAUUACGAAAA,-2.39 ± 0.46,-1.28 ± 0.22
UGUUAGCAAUAUUACGACAC,-3.43 ± 0.47,-2.08 ± 0.43
UGUUAGCAAUAUUACGACAU,-2.59 ± 0.021,-1.28 ± 0.035
UGUUAGCAAUAUUACGAGAA,-2.27 ± 0.34,-1.85 ± 0.38
UGUUAGCAAUAUUACGAGGC,-3.73 ± 0.43,-2.67 ± 0.38
UGUUAGCAAUAUUACGAUCA,-0.0398 ± 0.15,0.805 ± 0.15
UGUUAGCAAUAUUACGAUUG,-0.695 ± 0.084,-0.795 ± 0.12
UGUUAGCAAUAUUACGCACA,-1.21 ± 0.12,-0.549 ± 0.11
UGUUAGCAAUAUUACGCGGA,-0.526 ± 0.082,-0.401 ± 0.087
UGUUAGCAAUAUUACGCGGU,-4.19 ± 0.47,
UGUUAGCAAUAUUACGCGUA,-0.809 ± 0.12,-0.454 ± 0.13
UGUUAGCAAUAUUACGCGUC,-3.45 ± 0.33,-2.79 ± 0.36
UGUUAGCAAUAUUACGGAAU,-0.534 ± 0.34,-1.91 ± 0.38
UGUUAGCAAUAUUACGGACU,-0.161 ± 0.079,0.414 ± 0.093

Sequence,self-splicing fitness (ln) (30 °C),self-splicing fitness (ln) (37 °C)
UGUUAGCAAUAUUACGGCAU,-3.67 ± 0.32,-1.95 ± 0.27
UGUUAGCAAUAUUACGGCGC,-2.65 ± 0.21,-2.22 ± 0.27
UGUUAGCAAUAUUACGGGCA,-0.664 ± 0.16,0.194 ± 0.18
UGUUAGCAAUAUUACGGGCC,-1.76 ± 0.18,-1.6 ± 0.32
UGUUAGCAAUAUUACGGUUU,-2.82 ± 0.15,-2.02 ± 0.15
UGUUAGCAAUAUUACGUAGG,-2.19 ± 0.11,-0.461 ± 0.12
UGUUAGCAAUAUUACGUCCG,-0.342 ± 0.15,0.113 ± 0.22
UGUUAGCAAUAUUACGUCUA,-0.124 ± 0.072,-0.175 ± 0.071
UGUUAGCAAUAUUACGUCUG,-0.698 ± 0.12,0.393 ± 0.15
UGUUAGCAAUAUUACGUGAA,-2.38 ± 0.16,-1.07 ± 0.13
UGUUAGCAAUAUUACGUGCA,-0.172 ± 0.15,0.0583 ± 0.19
UGUUAGCAAUAUUACGUGGA,-1.1 ± 0.22,-1.62 ± 0.15
UUAAAGCAAUAUUACGAAAG,-1.66 ± 0.11,-1.13 ± 0.17
UUAAAGCAAUAUUACGAACC,-1.34 ± 0.18,-0.963 ± 0.23
UUAAAGCAAUAUUACGAAGA,-1.19 ± 0.12,-0.63 ± 0.17
UUAAAGCAAUAUUACGAUAG,-0.00915 ± 0.088,-0.00163 ± 0.12
UUAAAGCAAUAUUACGCAGA,-0.209 ± 0.11,-0.133 ± 0.13
UUAAAGCAAUAUUACGCAGG,-0.165 ± 0.12,-0.592 ± 0.15
UUAAAGCAAUAUUACGCUUG,-0.897 ± 0.096,0.0122 ± 0.12
UUAAAGCAAUAUUACGGAAC,-1.08 ± 0.23,-1.69 ± 0.37
UUAAAGCAAUAUUACGGCAU,-0.866 ± 0.11,0.331 ± 0.12
UUAAAGCAAUAUUACGGCUU,-1.44 ± 0.082,-0.99 ± 0.11
UUAAAGCAAUAUUACGGGGU,,-2.21 ± 0.3
UUAAAGCAAUAUUACGUACG,0.121 ± 0.083,0.746 ± 0.1
UUAAAGCAAUAUUACGUCGC,-3.09 ± 0.21,-2.18 ± 0.23

Sequence,self-splicing fitness (ln) (30 °C),self-splicing fitness (ln) (37 °C)
UUAAAGCAAUAUUACGUCUA,0.0872 ± 0.095,0.626 ± 0.11
UUAAAGCAAUAUUACGUCUC,-2.76 ± 0.13,-1.4 ± 0.13
UUAAAGCAAUAUUACGUGUG,-0.972 ± 0.045,-0.4 ± 0.06
UUAAAGCAAUAUUACGUUGU,-3.19 ± 0.13,-1.4 ± 0.13
UUAAAGCAAUAUUACGUUUG,-2.18 ± 0.087,-0.699 ± 0.093
UUACAGCAAUAUUACGAAAA,-2.35 ± 0.17,-0.806 ± 0.14
UUACAGCAAUAUUACGAAGG,-3.54 ± 0.31,-1.3 ± 0.23
UUACAGCAAUAUUACGACGC,0.421 ± 0.26,-1.47 ± 0.36
UUACAGCAAUAUUACGACUA,0.0835 ± 0.1,0.256 ± 0.12
UUACAGCAAUAUUACGACUG,-1.26 ± 0.08,-1.81 ± 0.12
UUACAGCAAUAUUACGAGAG,-1.48 ± 0.11,-2.4 ± 0.15
UUACAGCAAUAUUACGAGUU,-4.21 ± 0.21,-2.18 ± 0.14
UUACAGCAAUAUUACGAUCA,-0.398 ± 0.13,-0.133 ± 0.17
UUACAGCAAUAUUACGCAGA,-1.84 ± 0.14,-0.823 ± 0.12
UUACAGCAAUAUUACGCUCG,0.107 ± 0.086,0.283 ± 0.11
UUACAGCAAUAUUACGGCUC,-1.76 ± 0.16,-0.974 ± 0.16
UUACAGCAAUAUUACGGGAA,-1.78 ± 0.086,-0.461 ± 0.084
UUACAGCAAUAUUACGGGAC,-4.47 ± 0.33,-2.07 ± 0.25
UUACAGCAAUAUUACGGUCG,0.503 ± 0.065,0.571 ± 0.087
UUACAGCAAUAUUACGGUGC,-3.23 ± 0.21,-1.92 ± 0.17
UUACAGCAAUAUUACGUAGC,-3.65 ± 0.3,-2.92 ± 0.27
UUACAGCAAUAUUACGUGAG,-0.626 ± 0.055,0.12 ± 0.092
UUACAGCAAUAUUACGUGCA,-1.27 ± 0.055,-0.148 ± 0.063
UUACAGCAAUAUUACGUGGG,-2.85 ± 0.11,-2.43 ± 0.13
UUACAGCAAUAUUACGUGUG,-1.72 ± 0.063,0.0664 ± 0.077

Sequence,self-splicing fitness (ln) (30 °C),self-splicing fitness (ln) (37 °C)
UUACAGCAAUAUUACGUUUG,-1.54 ± 0.074,-1.14 ± 0.094
UUAGAGCAAUAUUACGAUAC,-2.36 ± 0.36,
UUAGAGCAAUAUUACGAUUG,-1.95 ± 0.11,-0.556 ± 0.14
UUAGAGCAAUAUUACGCAAG,-1.18 ± 0.14,-0.488 ± 0.22
UUAGAGCAAUAUUACGCACG,-0.444 ± 0.17,-0.183 ± 0.18
UUAGAGCAAUAUUACGCUCG,-1.98 ± 0.23,
UUAGAGCAAUAUUACGCUUC,-2.81 ± 0.32,
UUAGAGCAAUAUUACGGCCC,-3.84 ± 0.36,-1.52 ± 0.32
UUAGAGCAAUAUUACGGUCC,-2.67 ± 0.42,
UUAGAGCAAUAUUACGGUGA,-0.868 ± 0.067,-0.176 ± 0.08
UUAGAGCAAUAUUACGGUUG,-1.98 ± 0.15,-1.16 ± 0.15
UUAGAGCAAUAUUACGUAGA,-2.18 ± 0.17,-1.41 ± 0.19
UUAGAGCAAUAUUACGUCGG,-1.11 ± 0.12,-0.455 ± 0.14
UUAUAGCAAUAUUACGAAAA,-1.95 ± 0.39,-1.31 ± 0.28
UUAUAGCAAUAUUACGAGAU,-3.27 ± 0.31,-3.38 ± 0.39
UUAUAGCAAUAUUACGAGUA,-1.68 ± 0.38,-1.09 ± 0.33
UUAUAGCAAUAUUACGAUCG,-0.934 ± 0.12,-0.581 ± 0.14
UUAUAGCAAUAUUACGCAAU,-2.86 ± 0.3,-0.556 ± 0.23
UUAUAGCAAUAUUACGCAUU,-3.19 ± 0.23,-2.72 ± 0.2
UUAUAGCAAUAUUACGCCCA,-1.57 ± 0.22,-0.787 ± 0.26
UUAUAGCAAUAUUACGCCUA,-1.55 ± 0.15,0.273 ± 0.2
UUAUAGCAAUAUUACGCGCA,-1.06 ± 0.19,-0.728 ± 0.2
